Here are results for nine sequences from the DeepSol protein solubility set.

A short description of this series: soluble on expression in E. coli; label from the status in PepcDB or PDB records.
Consider “MSNDNEVPGSMVIVAQGPDDQYAYEVPPIDSAAVAGNMFGDLIQREIYLQKNIYYPVRSIFEQGTKEKKEINKKVSDQVDGLLKQITQGKREATRQERVDVMSAVLHKMESDLEGYKKTFTKGPFIDYEKQSSLSIYEAWVKIWEKNSWEERKKYPFQQLVRDELERAVAYYKQDSLSEAVKVLRQELNKQKALKEKED”, for which the “soluble on expression in E. coli” value is given as “soluble”.

For the sequence “MYVVKSANDGGNSLFLSSSDIVNQLSKTETGKKHLKTLTGNLYPFKTPASFDKKQGVRWGNILSVNTQMIRFRSDCIYKGIEENRNKVSKEMVLALDYLINVIKNASDIQEFSAQDDGLIIIDNVNGLHARTDYTDKNRHYIRARITV”, the “soluble on expression in E. coli” value is given as “not soluble”.

Take “MSSETITVERSGKVHHAEGDAARLDAYIPSECPQNHAANLLHLPNGDVLCVWFGGTQEGIADISIYMSRLVKDSGSWSKAAKLSEDATRSEQNPVLFLAPDNVLWLLYTAQKSGNQDTAIVRYRQSTDLGATWGEIGTLLDQPGTFIRQPITVLENGDWLLPVFYCRVQPGEKWVGNDDDSAVKISSDQGKTWREYPVPNSTGCVHMNITPLQDGTLLALYRSRWADFIYQSRSTDGGKTWSEPVATDLPNNNSSIQVTTLKNGHLALVFNHMSAADATDRRLSLYDEIEDEEDKASGAKMPEVQAGDRSAFWGAPRAPMTLAISEDGGKSWPYQRNIEVGDGYCMTNNSTEKLNREFSYPSVKQAPDGKLHVAFTYFRQAIKHVVVSEEWVKAGLEHHHHHH”: the “soluble on expression in E. coli” value is reported as “not soluble”.

In the case of “SADSEADKPLRKISAAFKKLAIIVNSPNPEVPVTQFSHACSLVSPLFGCLGIAFKFAEMDYVAKVDDLVRASSSISTLVVMMDKDIEADCVRKAGSHTRNLLRVKRGLDMVKVLFEQIIASEGDNSLKDPATKSYAQVFAPHHGWAIRKAVSLGMYALPTRAHLLNMLKEDEAAAKIHMQSYVNSSAPLITYLDNLFLSKQLGIDW”, the “soluble on expression in E. coli” value was “soluble”.

As for “MAHHHHHHMKAKGPVKIVLFGAPGVGKGTFAEILSKKEKLKHINMGSILRDEIKNKTTIGREIHKVVTSGNLVADELVVKIVKGEIAKVTAQDGHFKGFILDGFPRNLLQCKQLVEITSIDLFVNIHMPRHILLKKIMGRRICHECNRNFNIAHIRDDPYDMPPILPPPECEKCKGNPKLQRRSDDEEEIVAHRLDTYESTNSHLINFFKNSNCNLVDFEIQRGLRDFDSFYRVVGQHL”, the “soluble on expression in E. coli” value is listed as “not soluble”.

For “MCGRFAQSQTREDYLALLAEDIERDIPYDPEPIGRYNVAPGTKVLLLSERDEHLHLDPVFWGYAPGWWDKPPLINARVETAATSRMFKPLWQHGRAICFADGWFEWKKEGDKKQPFFIYRADGQPIFMAAIGSTPFERGDEAEGFLIVTAAADQGLVDIHDRRPLVLSPEAAREWMRQEISGKEASEIAASGCVPANQFSWHPVSRAVGNVKTRARSLEHHHHHH”, the “soluble on expression in E. coli” value is on record as “not soluble”.

Regarding “MGITLGKKQLNKGRVSLYLNYSYNGKRRKEYLGIILDAPTSAERRAENRNKVLIARQIKAKKELEFLSVEYHLNDIENTFDDILPTDKSNVPDFYILIGQYLDTYHKKDKKMVRACITHLRLFTRKKSLPITLLTKDFCINFLEYLRDHLRGNTPIGYFKKFKMCINKCIEKKLMTSNPTDGIRLMQFDEVTKAILSLKEIQKLAITPCPNNEVKRAFLFSCYCGLRWCDVHQLQYKDIDFSSNRLTILQQKVQSHSKNAILHLNLNHTAIKLLQRHKGINEELVFGLPSYSYTL”, the “soluble on expression in E. coli” value was “not soluble”.

On to “MGSDKIHHHHHHMTEGGFDPALLVQSWPKPSKPRPIVTFGSGSIVGDAHFPAYRKAGFPIAGLYDPDQAKATTLADKWGVTAFRSVGEAAAVQDAIFDLATPPGRHAEILKDLPDGAVALIQKPMGNYLGEATEILEICRAKNLKAAVNFQLRFAPMMLALKDAIAKGWLGEIVDFDAWLALATPWELWEFLLKAPRVEIAMHSIHYLDLIRQLLGDPKGVHAKTLGHPNHKVAQTRTSAILDYGDTVRCALSINHDHKFGRRHQACEFRICGTEGAAYLKLGLNLDYPRGEPDILEIHPKGGTDWIAVPLAGEWFPDAFVGRMANVQRFASGEDDELVSSVEDAWSTMALVEAAYKSSAAPATLIAERP”, for which the “soluble on expression in E. coli” value was “not soluble”.

For “MDLHLTVDLKKTKTLIDLADQAHLIIEQTTKLPKKEAAILFLLIDNQLVALGLAEEKATYKEVSFDHSILLKPTWDTELAYLAQAFLDDAKESGLTLEATPTTVKIPKSAVATVTNYKETVTFILERFGYSLFKKPAPKKARPAKARHKWTKEVSQIPFYIDTRQSKATVFWQKRNEMLIKAGATMMPEAPLNKDGSVGFSARFGEKLRDERKGQFKDFVTTEDIVLKSVNEVGLFLYFAGTNSWLELVDENGKTLNEWTVVE”, the “soluble on expression in E. coli” value is on record as “not soluble”.
